Literature values in US5380646A, “Thrombus detection using radiolabelled disintegrins” (Temple University of the Commonwealth System of Higher …, priority 1992, dated 1995).

System: thrombi
Conditions: literature, in words

B1: tissue plasminogen activator: plasminogen activator (protein, UniProt P00750 36-562, looked up)
Tissue-type plasminogen …: SYQVICRDEKTQMIYQQHQSWLRPVLRSNRVEYCWCNSGRAQCHSVPVKSCSEPRCFNGGTCQQALYFSDFVCQCPEGFAGKCCEIDTRATCYEDQGISYRGTWSTAESGAECTNWNSSALAQKPYSGRRPDAIRLGLGNHNYCRNPDRDSKPWCYVFKAGKYSSEFCSTPACSEGNSDCYFGNGSAYRGTHSLTESGASCLPWNSMILIGKVYTAQNPSAQALGLGKHNYCRNPDGDAKPWCHVLKNRRLTWEYCDVPSCSTCGLRQYSQPQFRIKGGLFADIASHPWQAAIFAKHRRSPGERFLCGGILISSCWILSAAHCFQERFPPHHLTVILGRTYRVVPGEEEQKFEVEKYIVHKEFDDDTYDNDIALLQLKSDSSRCAQESSVVRTVCLPPADLQLPDWTECELSGYGKHEALSPFYSERLKEAHVRLYPSSRCTSQHLLNRTVTDNMLCAGDTRSGGPQANLHDACQGDSGGPLVCLNDGRMTLVGIISWGLGCGQKDVPGVYTKVTNYLDWIRDNMRP
**Q.** For B1, which “ability to image or detect thrombi” value is on record?
**A.** Its value is “only with marginal success”.
